One may read the Kd as the equilibrium constant for the complex coming apart. Read a low Kd as higher affinity.

This passage reports Kd results from patent JP2016528193A (dated 2016).

The target in assay [1] is ヒトPCSK9(野生型) (human). As to the kind of experiment: KinExA solution equilibrium, PCSK9-coated beads. In general terms: A kinetic exclusion assay measures how much of one partner remains free in solution.
In assay [2] the target is ヒトPCSK9(野生型) (human). As to the kind of experiment: Biacore at pH 6.0 (HBS-P with 0.01 % BSA), fitted from competition curves, n=1. (In general: Surface plasmon resonance follows binding to a sensor surface in real time, without labels.)

B1: 16F12 (antibody, V domains shown)
VH: QVHLVESGGGVVQPGRSLRLSCAASGFTFNSFGMHWVRQAPGKGLEWVALIWSDGSDEYYADSVKGRFTISRDNSKNTLYLQMNSLRAEDTAVYYCARAIAALYYYYGMDVWGQGTTVTVSS
VL: QSVLTQPPSVSAAPGQKVTISCSGSSSNIGNNFVSWYQQLPGTAPKLLIYDYNKRPSGIPDRFSGSKSGTSATLGITGLQTGDEADYYCGTWDSSLSAYVFGTGTRVTVLQ
On to B1, for which the Kd with ヒトPCSK9(野生型) [1] came out at 15 pM; with ヒトPCSK9(野生型) [2], 0.029 nM.

B2: 31H4 (antibody, V domains shown)
VH: EVQLVESGGGLVKPGGSLRLSCAASGFTFSSYSMNWVRQAPGKGLEWVSSISSSSSYISYADSVKGRFTISRDNAKNSLYLQMNSLRAEDTAVYFCARDYDFWSAYYDAFDVWGQGTMVTVSS
VL: QSVLTQPPSVSGAPGQRVTISCTGSSSNIGAGYDVHWYQQLPGTAPKLLISGNSNRPSGVPDRFSGSKSGTSASLAITGLQAEDEADYYCQSYDSSLSGSVFGGGTKLTVLQ
For the molecule B2, the values for the Kd in the assay with ヒトPCSK9(野生型) [1] and with ヒトPCSK9(野生型) [2] were 3 pM and 0.0125 nM, respectively.
